Experimental findings from patent US20210155689A1 (SHANGHAI PHARMAEXPLORER, published 2021) are described below.

For the experiment, the target named is T1, monkey LAG-3 on cells (HEK293-cLAG-3 stable cell line) (monkey, UniProt P18627 24-525 (human entry)).
T1 construct: Full-length monkey (Chinese monkey) LAG-3 gene expressed on HEK293 cells
T1 chain: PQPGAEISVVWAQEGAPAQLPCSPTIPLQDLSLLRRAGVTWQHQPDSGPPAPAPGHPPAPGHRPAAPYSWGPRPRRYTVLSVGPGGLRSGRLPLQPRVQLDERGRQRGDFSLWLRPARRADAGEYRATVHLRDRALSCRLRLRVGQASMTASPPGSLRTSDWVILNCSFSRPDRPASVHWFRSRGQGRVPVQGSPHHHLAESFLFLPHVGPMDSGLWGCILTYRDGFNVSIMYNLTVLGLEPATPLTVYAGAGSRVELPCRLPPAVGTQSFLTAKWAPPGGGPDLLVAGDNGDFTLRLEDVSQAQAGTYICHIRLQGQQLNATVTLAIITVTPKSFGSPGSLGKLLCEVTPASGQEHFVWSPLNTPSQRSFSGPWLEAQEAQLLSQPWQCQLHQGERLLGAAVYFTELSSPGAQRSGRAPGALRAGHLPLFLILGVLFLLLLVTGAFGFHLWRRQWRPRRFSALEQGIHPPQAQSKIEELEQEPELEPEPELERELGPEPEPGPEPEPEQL
Description: FACS, HEK293-cLAG-3, antibody 0.064 nM. The source says:
The pIRES plasmid with the monkey-derived full-length gene was transfected into the HEK293 cell line to construct a HEK293 stable cell line containing monkey LAG-3 (herein referred to as HEK293-cLAG-3 stable cell line). The HEK293-hLAG-3 stable cell line and HEK293-cLAG-3 stable cell line were expanded in a T-75 cell culture flask to a 90% confluence. The medium was aspirated, and the cells were washed with HBSS (Hanks' Balanced Salt Solution) 1-2 times, then treated with a enzyme-free cell dissociation fluid (Versene solution: Life technology) and the cells were collected. The cells were washed with HBSS buffer for 1-2 times. After counted, the cells were diluted with HBSS to 1-2×10⁶ cells per ml, added with 1% goat serum blocking solution, incubated on ice for 20-30 minutes, and then washed with HBSS for 2 times by centrifugation. The collected cells were suspended in the FACS buffer (HBSS+1% BSA) to 2×10⁶ cells/ml, added as 100 microliters per well to a 96-well FACS reaction plate, added with 100 microliters per well of the antibody sample to be tested, incubated on ice for 1-2 hours. The plate was washed twice with the FACS buffer by centrifugation, added with 100 microliters of fluorescent (Alexa 488)-labeled secondary antibodies per well, and incubated on ice for 0.5-1.0 hours. The plate was washed 2-3 times with FACS buffer by centrifugation, added with 100 μl fixative solution (4% Paraformaldehyde) per well to suspend the cells. 5-10 minutes later, it was washed 1-2 times with FACS buffer by centrifugation. The cells were suspended with 100 microliters of FACS buffer, FACS (FACSCalibur, BD) was used for detection and the results were analyzed.

B1: 105F1E10 mouse-human chimeric antibody (antibody, V domains shown)
VH: EVQLQQSGPELVKPGASVKMSCRASGYTFTDFKMHWMKQSHGKSLEWIGYIAPNNGGTAYNQKFRGKATLTVNESSNTAYMELRSLTSEDSAVYYCVDWDDVDYWGQGTTLTVSS
VL: DIKMTQSPSSMYASLGERVTITCKASQDINSYLSWFQQKSGKSPKTLIYRANRLVDGVPSRFSGSGSGQDYSLTISSLEYEDMGIYYCLQYVEFPLTFGAGTKLELK
notes: also called mAb009-105F1E10
Consider B1, for which the Mean fluorescence intensity amounted to 3.54.

B2: 405B8H3 mouse-human chimeric antibody (antibody, V domains shown)
VH: QVQLQQSGAELVRPGASVTLSCKASGYTFTDYEMHWVKQTPVHGLEWIGATDPETGNSAYNQKFKGKAIMTADKSSSTAYMELRSLTSEDSAVYYCISTGWNDWGQGTSLTVSS
VL: DIKMTQSPSSMYASLGERVTITCKASQDINSYLSWFQQKPGKSPKTLIYRADRLLDGVPSRFSGSGSGQDYSLTISSLEYGDMGIYYCLQYDEFPYTFGGGTKLEIK
notes: also called mAb103-405B8H3
Turning to B2, the Mean fluorescence intensity is 4.8.

B3: 409B11E12 mouse-human chimeric antibody (antibody, V domains shown)
VH: QVQLQQSGAELVRPGASVTLSCKASGYTFTDYEMHWVKQTTVHGLEWIGATDPETSYSAYNQKFKGKAILTADKSSSTAYMELRSLTSEDSAVYYCIATGWNDWGQGTSLTVSS
VL: DLKMTQSPSSMYASLGERVTITCKASQDINSYLSWFQQKPGKSPKTLIYRANRLLDGVPSRFSGSGSGQDYSLTISSLEYEDMGIYYCLQYDEFPYTFGGGTKLEIK
notes: also called mAb104-409B11E12
Take B3: the Mean fluorescence intensity was 4.95.

B4: 409D4E10 mouse-human chimeric antibody (antibody, V domains shown)
VH: QVQLQQSGAELVRPGASVTLSCKASGNTFTDYEMHWVKQTPVHGLEWIGATDPETDNTAYNQKFKGKAILTTDKSSSTAYMELRSLTSEDSAVYYCITSGWNDWGQGTSLTVSS
VL: DIKMTQSPSSMYASLGERVTITCKASQDINSYLSWFQQKPGKSPKTLIYRANRLLDGVPSRFSGSGSGQDYSLTISSLEYEDMGIYYCLQYNEFPYTFGGGTKLEIK
notes: also called mAb112-409D4E10
B4: the Mean fluorescence intensity came to 4.42.
